Reference: patent US12661396B2, “Selective targeting of the TREML1/MD2 interaction by small peptide or protein and its use for vaccine adjuvants” (Ascendo Biotechnology, Inc., priority 2020, dated 2026)

Assays:
TLR4 = TLR4 (Homo sapiens, UniProt O00206); experiment: Solid phase binding assay, TREML1 ECD to immobilized TLR4; settings: absorbance at 450 nm; TREML1 ECD 2.5 ug/ml to 156 ng/ml; FIG. 2
Method: (§1) To identify potential binding partners of TREML1 ECD, we used solid phase binding assay to assess interactions between TREML1 ECD and candidate proteins. Briefly, various candidate proteins and BSA (as a negative control) were coated on a 96-well plate and TREML1 ECD at various concentrations were added to the wells. After binding and washing, an anti-TREML1 antibody conjugated with horse radish peroxidase (HRP) was added to each well. After washing, HRP substrate, TMB (3,3′,5,5′-tetramethylbenzidine), was added. After reaction, absorbance at 450 nm was measured to assess TREML1 binding.
(§2) To investigate the protein-protein interactions. Recombinant TLR4 (5 ug/ml in PBS), MD2 (5 ug/ml in PBS), CD14 (5 ug/ml in PBS), and BSA (negative control) proteins were plated separately on 96-well plates and incubated overnight at 4 degrees Celsius. The blocking buffer (2% BSA in PBS) was added to avoid the nonspecific binding for 2 hr at room temperature. A serial diluted TREML1 ECD (2.5 ug/ml to 156 ng/ml, 2-fold dilutions) solutions were added and allowed to incubate at room temperature for 2 hr. Then, anti-TREML1 antibody (1 ug/ml in PBS) was added for 1 hr. Next, a secondary antibody with HRP labeling, anti-Rat IgG-HRP, was added to the plates and incubated for 30 minutes at room temperature. […] Absorbance at OD450/540 nm was measured with a microplate reader.

[1] = tested on: Human peripheral blood mononuclear cells (PBMCs); experiment: TLR agonist-induced TNF-α secretion in human PBMCs with or without TREML1 ECD; type: cell-based; settings: human PBMCs pretreated with hTREML1 10, 5, 1 ug/ml for 30 min
Method: Human peripheral blood samples from healthy volunteer donors were collected by venipuncture bled into ACD vacutainer tubes. Human peripheral blood mononuclear cells (PBMCs), which were separated from whole blood using Ficoll-Paque Plus (GE17-1440-03) according to the manufacturer's instructions. Human peripheral blood mononuclear cells (PBMCs) were pretreated with or without […]1 (10 ug/ml, 5 ug/ml and 1 ug/ml) and incubated for 30 min at 37° C. with 5% CO2. After treatments, cells were stimulated with TLR agonist, including R848 (InvivoGen #tlrl-r848) and ODN2395 (InvivoGen #tlrl-2395), and incubated at 37° C. with 5% CO2 for 18 hr. Supernatants of cell culture medium were collected for TNF-α measurements. Cell supernatants and plasma samples were harvested and stored at -80° C. Human TNFα concentrations were detected using TNF-α DuoSet ELISA kit (R&D #DY210) according to manufacturer's instructions. Signals were developed using 3,3',5,5'-tetramethylbenzidine and the absorbance of 450 nm was detected with a microplate reader.

MD2 = target: T1, MD2 (Homo sapiens, UniProt Q9Y6Y9); experiment: Solid phase binding assay, TREML1 ECD to immobilized MD2; settings: absorbance at 450 nm; TREML1 ECD 2.5 ug/ml to 156 ng/ml; FIG. 2
T1 sequence (Q9Y6Y9 19-160): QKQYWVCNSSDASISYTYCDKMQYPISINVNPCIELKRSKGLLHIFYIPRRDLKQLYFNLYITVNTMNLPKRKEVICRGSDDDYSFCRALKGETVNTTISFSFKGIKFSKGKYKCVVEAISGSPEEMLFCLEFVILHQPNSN
Method: as §1, §2

[2] = tested on: THP1/XBlue/MD2/CD14 cells; experiment: TNF-α secretion by THP1/XBlue/MD2/CD14 monocytes (ELISA); type: cell-based, human; settings: FIG. 5B
Method: (§3) To investigate the effects of anti-TLR4 antibody and anti-MD2 antibody on TREML1 ECD-triggered TLR response, THP1/XBlue/MD2/CD14 cells were pretreated with anti-TLR4 antibody, anti-MD2 antibody, or IgG control for the indicated groups and incubated for 15 minutes at 37° C., 5% CO2. After pretreatments, THP1/XBlue/MD2/CD14 cells were stimulated by TREML1 ECD (10 ug/ml) and seeded at a concentration of 1×10^6 cells/ml (200 ul per well) into wells of a 96-well plate for 18 hr at 37° C., 5% CO2. To determine the NF-κB activation, the supernatants of culture medium were collected and assessed with QUANTI-Blue™ reagent (InvivoGen) according to the manufacturer's instructions.
Cell supernatants and plasma samples were harvested and stored at −80° C. Human TNFα concentrations were detected using TNF-α DuoSet ELISA kit (R&D #DY210) according to manufacturer's instructions. Signals were developed using 3,3′,5,5′-tetramethylbenzidine and the absorbance of 450 nm was detected with a microplate reader.

NF-κB = NF-κB activation in THP1/XBlue/MD2/CD14 cells (SEAP reporter, QUANTI-Blue); type: cell-based, human; settings: FIG. 5A
Source text: (§4) In addition to the solid phase binding assays, the TREML1 ECD binding was further evaluated using THP1/XBlue/MD2/CD14 cells (InvivoGen, San Diego, USA), which express MD2 and CD14. These cells (InvivoGen, San Diego, USA) are derived from the human monocytic THP1 cell line and express an NF-κB- and AP-1-inducible secreted embryonic alkaline phosphatase (SEAP) reporter gene.
as §3

[3] = tested on: THP1/XBlue/MD2/CD14 cells; experiment: TREML1 ECD binding to THP1/XBlue/MD2/CD14 cells and antibody competition (flow cytometry); type: cell-based; settings: TREML1 ECD 10 ug/ml, 1 hour; AF647-anti-human TREML1 staining; FIG. 4
Source text: as §4
To investigate the effects of anti-TLR4 antibody (HTA125, BioLegend #312814) and anti-MD2 antibody (18H10, ThermoFisher #MA5-33351) on TREML1 ECD binding to THP1/XBlue/MD2/CD14 cells, cells were pretreated with anti-MD2 antibody, anti-TLR4 antibody, IgG control, or a combination for 15 min at 37° C. with 5% CO2. After antibodies treatments, cells were treated with TREML1 ECD (10 ug/ml) and incubated for 1 hours. Cells were washed with PBS containing 1% FBS and stained with AF647-anti-human TREML1 antibody, followed by flow cytometric analysis.
The cells were resuspended in PBS containing 1% FBS at a density of 2×10^6 cells/ml and non-specific bindings of Abs were blocked using Human Fc Block (BD Biosciences #564220) at room temperature for 10 min. AF647-anti-human TREML1 (clone 268420) (R&D #FAB2394R) antibody was used as a detection antibody of TREML1 binding to cell surface. […] Binding analysis was performed on a CytoFLEX Flow Cytometer (Beckman Coulter) and the collected data were analyzed using Kazula software.

CD14 = target: T2, CD14 (Homo sapiens, UniProt P08571); experiment: Solid phase binding assay, TREML1 ECD to immobilized CD14; settings: absorbance at 450 nm; FIG. 2
T2 sequence (P08571 20-345): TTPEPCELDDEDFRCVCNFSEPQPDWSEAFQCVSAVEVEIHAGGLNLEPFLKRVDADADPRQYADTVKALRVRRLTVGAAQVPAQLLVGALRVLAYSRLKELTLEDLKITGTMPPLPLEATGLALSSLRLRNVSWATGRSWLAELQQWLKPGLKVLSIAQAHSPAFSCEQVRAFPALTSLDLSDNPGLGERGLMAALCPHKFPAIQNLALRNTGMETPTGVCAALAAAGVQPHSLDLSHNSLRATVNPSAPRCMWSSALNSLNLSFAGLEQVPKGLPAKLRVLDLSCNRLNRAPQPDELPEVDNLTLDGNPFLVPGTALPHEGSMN
Method: as §1, §2

Chain of TLR4 (O00206 24-839): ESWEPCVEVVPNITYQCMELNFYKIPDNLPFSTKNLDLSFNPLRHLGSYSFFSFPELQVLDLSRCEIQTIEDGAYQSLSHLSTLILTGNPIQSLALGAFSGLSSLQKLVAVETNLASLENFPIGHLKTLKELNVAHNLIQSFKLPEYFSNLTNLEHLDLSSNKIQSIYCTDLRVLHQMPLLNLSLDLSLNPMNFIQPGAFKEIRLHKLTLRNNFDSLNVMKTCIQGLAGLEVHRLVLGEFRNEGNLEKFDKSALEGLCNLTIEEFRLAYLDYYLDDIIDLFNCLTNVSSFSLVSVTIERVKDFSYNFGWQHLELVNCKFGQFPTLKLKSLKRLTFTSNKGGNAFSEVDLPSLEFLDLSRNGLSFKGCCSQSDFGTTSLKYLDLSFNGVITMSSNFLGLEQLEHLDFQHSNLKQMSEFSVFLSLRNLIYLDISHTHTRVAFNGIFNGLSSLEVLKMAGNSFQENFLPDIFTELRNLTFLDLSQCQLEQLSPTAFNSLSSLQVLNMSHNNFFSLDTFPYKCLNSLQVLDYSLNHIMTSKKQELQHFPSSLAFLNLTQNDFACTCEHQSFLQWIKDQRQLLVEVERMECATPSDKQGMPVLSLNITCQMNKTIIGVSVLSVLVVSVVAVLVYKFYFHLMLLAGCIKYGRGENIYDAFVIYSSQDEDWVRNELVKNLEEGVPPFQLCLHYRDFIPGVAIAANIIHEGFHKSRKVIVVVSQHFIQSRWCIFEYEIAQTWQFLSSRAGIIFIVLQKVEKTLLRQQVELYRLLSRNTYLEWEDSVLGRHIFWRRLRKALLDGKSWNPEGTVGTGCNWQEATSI

B1: TREML1 ECD: human TREML1 extracellular domain, SEQ ID NO:1; recombinant, E. coli, polyhistidine tag at the N-terminus (protein)
chain: QGIVGSLPEVLQAPVGSSILVQCHYRLQDVKAQKVWCRFLPEGCQPLVSSAVDRRAPAGRRTFLTDLGGGLLQVEMVTLQEEDAGEYGCMVDGARGPQILHRVSLNILPPEEEEETHKIGSLAENAFSDPAGSANPLEPSQDEKSIP
modifications: N-terminal polyhistidine tag; homo sapiens
notes: recombinant, E. coli, polyhistidine tag at the N-terminus
- TREML1 ECD binding to immobilized TLR4 (TLR4): binds MD2 and TLR4 in a concentration-dependent manner
- effect on R848 (TLR7/8)-induced TNF-α secretion ([1]; FIG. 7A): enhanced in the presence of TREML1 ECD
- effect on ODN 2395 (TLR9)-induced TNF-α secretion ([1]; FIG. 7B): enhanced in the presence of TREML1 ECD in a dose-dependent manner
- TREML1 ECD binding to immobilized MD2 (MD2): binds MD2 and TLR4 in a concentration-dependent manner
- TNF-α secretion by THP1/XBlue/MD2/CD14 monocytes [2]: induces THP1/XBlue/MD2/CD14 monocyte activation
- NF-κB activation in THP1/XBlue/MD2/CD14 monocytes (NF-κB): induced activation of NF-κB
- binding to THP1/XBlue/MD2/CD14 cells [3]: can bind to the THP1/XBlue/MD2/CD14 cells
- TREML1 ECD binding to immobilized CD14 (CD14): does not bind to CD14
